Measured values: a protein production outcome set (Wang et al. 2014)

Assay: label from the status in PepcDB records

MLCACSGEQFRFEDQPGSPESLATRDFSASGLSSRNGGGDWDSKLEDIQVDEAESTLKEALSLNYEEARALLGRLEYQRGNFDAALQVFKGIDIKVLTPRIIKAIVEKTLPCKPRSKAVIVPPTTMSMHSVSLLLEAILLKARSLEELGSYKEAAEECKIILDVVENALPSGMPDGISGFAKLQDIFQKALELLPLLWKKAGNHHETIASYRRALSRPWNLDPQRLAVTQKSLALVLLYGSVEACPKDNIEEAIVLLMLLVKKMVVGDIQWDPELMDHLTYALSMTGQFEVLANYLEQTLPGVYTRGERWYLLSLCYSAAGIDKAAINLLKMALGPSESRQIPHIPLLLFGAKLCSKDPKHSRDGINFAHRLLDLGNSQSEHLLSQAHKFLGVCYGNAARSSKLDSERVFLQKKSLFSLNEAAKRGKADPELDVIFNLSVENAVQRNVQAALDGAVEYSSMVGGVSTKGWKHLAIVLSAEKRLKDAESILDFTMEEAGDIEKIELLRLKAVLQMAQEQPKKAMKTCSSLLGLIRAQEKSEQSESLLQKFETEAWQDLASVYGKLGSWSDAETCLEKARSMCYYSPRGWNETGLCLEAKSLHEEALISFFLSLSIEPDHVPSIVSIAEVMMKSGDESLPTAKSFLMNALRLDPRNHDAWMKLGHVAKKQGLSQQAAEFYQAAYELELSAPVQSFI
protein production: failed

MLNPEQVKRFLETAKQDPLYPAFLLALGTGLRRGEILGLRWQDLDLQKGILQVRQSLIRTREGLKFEEPKTEKSRRQIPLPPSVVAALKRHKAWVNQNKLILGPDYEDHDLVFPVENGRPRDPKGFAEYFNRLLDKAGLPHIRLHDLRHTHATLLLLEGVHPKVVQERLGHSTVSITLDIYSHILPGLQEKAAERIDGLLQPKENPSPKEGTIKLEHHHHHH
protein production: not failed

MRTLEPPNRMRIGLMGIVVALLVVAVGQSFTSVPMLFAKPSYYGQFTDSGGLHKGDRVRIAGLGVGTVEGLKIDGDHIVVKFSIGTNTIGTESRLAIRTDTILGRKVLEIEPRGAQALPPGGVLPVGQSTTPYQIYDAFFDVTKAASGWDIETVKRSLNVLSETVDQTYPHLSAALDGVAKFSDTIGKRDEQITHLLAQANQVASILGDRSDQVDRLLVNAKTLIAAFNERGRAVDALLGNISAFSAQVQNLINDNPNLNHVLEQLRILTDLLVDRKEDLAETLTILGRFSASFGETFASGPYFKVLLANLVPGQILQPFVDAAFKKRGISPEDFWRSAGLPAYRWPDPNGTRFPNGAPPPPPPVLEGTPEHPGPAVPPGSPCSYTPPADGLPRPWDPLPCANLTQGPFGGPDFPAPLDVATSPPNPDGPPPAPGLPIAGRPGEVPPNVPGTPVPIPQEAPPGARTLPLGPAPGPAPPPAAPGPPAPPGPGPQLPAPFINPGGTGGSGVTGGSEN
protein production: failed

QDVPVTQVMTPRPVVFRVDATMTINEFLDKHKDTPFSRPLVYSEQKDNIIGFVHRLELFKMQQSGSGQKQLGAVMRPIQVVLNNTALPKVFDQMMTHRLQLALVVDEYGTVLGLVTLEDIFEHLVGE
protein production: not failed

MQAVLNFPDLSPELFSISLFGMEFALRWYALAYIAGIVIAWRLAVLATRRAALWPANTPPMAPARIEDLLTWIILGVILGGRLGFVLFYQPAYYLANPTEILMVWQGGMAFHGGLLGVVIAAWLYSLRHNIPKLSLADLITHTVAPGLLLGRLANFINAELWGRPSDLPWAVIFPGPAAQACPGVVGLCARHPSQLYEAALEGLLLGTLLLWLVWRRGALKRPGLITGVFLAGYGLSRFVVEFFRQPDAQFVTPGNPLGLAWQVGEYGLTMGQLLSLPMIALGLWFVLRARAVPA
protein production: failed

MNNENMVRVFYVLLMGLGFPIMRFMSIHFETLNNNSVRFLSGGSLFVIICLIKFRSELKKIIGEPKIILYLFIYLFILGIFMTGNMFFFINGLKYTSALAGSIFGILAMPLAIIIAGIFFKDERDRIRQKEFYIGELLAIIGSLIFVINSSNNDGNTDFFLGAIFLFTAIFIQSVQNLIVKKVAKKINAVVISASTATISGVLFLCLAFNTKQIYLLQDVGIGMLIGLVCAGFYGMLTGMLMAFYIVQKQGITVFNILQLLIPLSTAIIGYLTLDERINIYQGISGIIVIIGCVLALKRKNKEC
protein production: failed

MANEGGQDAGDEYFADLDYIEVAEQLKEGYESEVDHSDPDAEEDNGGPDAEDDDDFRPNYHYQRKIKRSSRSGSTQNSSTQSSELDSQERAVINFNPNADLDET
protein production: failed

SKSSEKRQAVDTAVDGVFIRSLKVNCKVTSRFAHYVVTSQVVNTANEAREVAFDLEIPKTAFISDFAVTADGNAFIGDIKDKVTA
protein production: failed

MEVDLSGFNIDAPRWDQCTFLGRVKHFFNITDPRTVFVSEQELDWAKSVVEKSRMGLMPPGTQVEQLLYAKKLYDSAFHPDTGEKMNVIGRMSFQVPGGMIITGFMLQFYRTMPAVVFWQWVNQSFNALVNYTNRNAVSPTSVR
protein production: failed
